From patent CN114276439A (YUDOLONG SUZHOU MEDICAL SCIENCE AND TECH LIMITED COMPANY, dated 2022)

Columns and labels:
[1] = biological target: T1, HPV16假病毒 (HPV16, UniProt P03101 1-505); test: cell-based or functional assay
T1 sequence: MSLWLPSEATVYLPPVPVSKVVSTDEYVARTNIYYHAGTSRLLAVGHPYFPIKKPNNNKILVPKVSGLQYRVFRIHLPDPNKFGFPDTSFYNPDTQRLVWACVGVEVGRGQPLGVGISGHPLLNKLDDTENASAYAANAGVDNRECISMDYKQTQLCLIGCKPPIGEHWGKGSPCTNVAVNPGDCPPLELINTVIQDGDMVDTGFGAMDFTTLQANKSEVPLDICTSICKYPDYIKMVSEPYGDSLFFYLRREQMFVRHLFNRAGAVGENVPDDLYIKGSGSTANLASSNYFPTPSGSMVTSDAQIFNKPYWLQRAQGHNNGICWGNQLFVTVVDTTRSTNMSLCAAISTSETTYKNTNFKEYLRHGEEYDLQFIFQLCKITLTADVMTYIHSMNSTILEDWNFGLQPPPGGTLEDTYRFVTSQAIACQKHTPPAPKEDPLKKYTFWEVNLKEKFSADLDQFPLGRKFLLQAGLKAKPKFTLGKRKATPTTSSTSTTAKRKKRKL

[2] = biological target: T2, HPV11 VLP (HPV11, UniProt P04012 1-501); test: indirect ELISA, VLP coated at 0.25 μg/ml
T2 sequence: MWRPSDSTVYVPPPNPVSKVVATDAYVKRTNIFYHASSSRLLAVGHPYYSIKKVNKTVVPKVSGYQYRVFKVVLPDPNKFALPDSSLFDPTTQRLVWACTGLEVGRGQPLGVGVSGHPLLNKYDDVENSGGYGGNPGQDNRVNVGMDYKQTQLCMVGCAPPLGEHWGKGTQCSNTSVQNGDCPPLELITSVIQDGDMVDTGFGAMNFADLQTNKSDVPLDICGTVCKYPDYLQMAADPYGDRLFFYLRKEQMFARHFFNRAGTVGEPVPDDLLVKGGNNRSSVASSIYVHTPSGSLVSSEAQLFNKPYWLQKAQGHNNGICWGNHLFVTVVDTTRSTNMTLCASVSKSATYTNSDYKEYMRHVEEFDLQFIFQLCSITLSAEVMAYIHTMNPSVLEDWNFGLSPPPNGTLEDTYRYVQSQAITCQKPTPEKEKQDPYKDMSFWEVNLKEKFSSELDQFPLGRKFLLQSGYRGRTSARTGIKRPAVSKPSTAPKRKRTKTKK

B1: 单克隆抗体50A11 (antibody, V domains shown)
VH: DVQLQESGPGLVKPSQSLSLTCTVTGYSITSYHAWNWIRQFPGNKLEWMAYINYSGKTSYNPSLKSRISITRDTSKNQFLLQLNSVTTEDTATYYCARVDWEGNYFDYWGQGTTVTVSS
VL: DVLMTQTPLSLPVSLGDQASISCRSSQSILHSNGNTYLQWYLQKPGQSPNLLIYKVSNRFSGVPDRFSGSGSGTDFTLKISRVEAEDLGVYYCFQGSHVPPTFGGGTKLEIKR
notes: constant regions are not
In the case of B1, the HPV16假病毒中和反应IC50 [1] is reported as 1.35 ng/mL and the binding result [2] is reported as “no binding”.
